Consider 1 substance from publication doi:10.1101/2023.01.09.523336.

The term stoichiometry N denotes the number of molecules, sites or subunits per partner or assembly.

The test concerns the target Cyanophycin synthetase 1 (CphA1) from Tatumella morbirosei DSM 23827 (Tatumella morbirosei DSM 23827). In words: SEC. (SEC sorts molecules by how far they enter the pores of the column.)

“Cyanophycin synthetase 1 (CphA1) from Tatumella morbirosei DSM 23827 (enzyme)” returned a stoichiometry N of 4.
